In paper PMC6839023, “Structure of the UspA1 protein fragment from Moraxella catarrhalis responsible for C3d binding” (Journal of Structural Biology, 2019):

Target: the molecule itself
Test: crystal structure; UspA1 299-452 (2.4 mg/ml) mixed 1:3 with C3d (10.7 mg/ml); 1,6-hexanediol, 0.1 M Tris-HCl pH 8.5, 20 mM MgCl2; 2.5 Å; the crystals held only UspA1 299-452

B1: UspA1^299–452 (ubiquitous surface protein A1 fragment, residues 299–452) (domain or fragment)
chain: not shown
modifications: fluorescently labelled with the Monolith NT His-Tag Labelling Kit RED-tris-NTA (thermophoresis only)
notes: UspA1 of Moraxella catarrhalis strain ATCC 25238 (BC5), GenBank AAD43465, residues 299-452: part of the long neck (299-336) and of the stalk (337-452); Cloned NdeI/HindIII into pET22b(+); No thrombin cleavage is described; Trimer in the crystal; also called UspA1 fragment (amino acids 299–452); UspA^299–452; source: E. coli BL21(DE3), purified (NiNTA, Superdex 200)
- stoichiometry N: 3
